In one test the target is human TNF-α (human) (UniProt P01375). Nature of the test: cell-based or functional assay.
A further test has as its target human IL-17A (human) (UniProt Q16552). Nature of the test: cell-based or functional assay.
Chain of UniProt Q16552 (Q16552 24-155 limits assumed): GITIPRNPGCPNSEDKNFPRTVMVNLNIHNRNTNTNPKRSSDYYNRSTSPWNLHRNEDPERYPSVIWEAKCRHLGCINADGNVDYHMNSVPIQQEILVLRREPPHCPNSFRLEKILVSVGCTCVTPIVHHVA

Chain of UniProt P01375 (P01375 77-233 limits assumed): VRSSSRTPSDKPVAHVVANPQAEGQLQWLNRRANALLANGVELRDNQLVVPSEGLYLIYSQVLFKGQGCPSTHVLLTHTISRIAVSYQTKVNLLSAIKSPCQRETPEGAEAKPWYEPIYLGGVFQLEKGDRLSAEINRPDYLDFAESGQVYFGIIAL

In the test with human TNF-α (human), LY3114062 (bispecific antibody) showed an IC50, hIL-6 secretion of commercial RA-FLS cells stimulated with IL-17A and TNF-α (co-neutralization) of 0.0149 nM; an IC50, hIL-6 secretion of commercial RA-FLS cells stimulated with hTNF-α of 0.0186 nM. Further, in the test with human IL-17A (human), the IC50, hIL-6 secretion of commercial RA-FLS cells stimulated with IL-17A and TNF-α (co-neutralization) stood at 0.0149 nM; the IC50, hIL-6 secretion of commercial RA-FLS cells stimulated with hIL-17A turned out to be 0.371 nM.

Source of the values: patent US20220098297A1.
